In the supplement of paper PMC10567573:

B1: PTPN9 (parent)
chain: IDFLRVVRNQQSLAVSNMGARSKG
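Note: lentivirally expressed fusions sorted by FACS into six bins by GFP to DsRed ratio, PSI derived from sequencing read proportions per bin multiplied by bin number.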

Variants of: B1
Test: protein stability index of a GFP-peptide fusion (GPS, HEK-293T) (PSI 1-6); higher = more stable
Conditions: c terminus: a fixed tail appended
IDFLRVVRNQQSLAVSYMGARSKG [N17Y] showed a protein stability index of 1.93.
IDFLRVVRNQQSLAVSSMGARSKG [N17S] gave a protein stability index of 2.74.
Variant IDFLRVVRNQQSLAVSVMGARSKG [N17V] has a protein stability index of 2.
For IDFLRVVRNQQSLAVSWMGARSKG [N17W], the protein stability index was 2.14.
IDFLRVVRNQQSLAVSRMGARSKG [N17R] showed a protein stability index of 2.45.
Work on IDFLRVVRNQQSLAVSTMGARSKG [N17T] yielded a protein stability index of 2.71.
IDFLRVVRNQQSLAVSNMGATSKG [R21T] gave a protein stability index of 1.66.
With IDFLRVVRNQQSLAVSNMGANSKG [R21N] the protein stability index was 2.65.
For IDFLRVVRNQQSLAVSNMGAISKG [R21I], the protein stability index was 2.14.
Work on IDFLRVVRNQQSLAVSNMGADSKG [R21D] yielded a protein stability index of 2.54.
IDFLRVVRNQQSLAVSNMGAASKG [R21A] showed a protein stability index of 2.6.
IDFLRVVRNQQSLAVSNMGAKSKG [R21K] gave a protein stability index of 2.4.
For IDFLRVVRNQQSLAVSNMGAVSKG [R21V], the protein stability index was 2.
IDFLRVVRNQQSLAVSNMGACSKG [R21C] gave a protein stability index of 1.83.
With IDFLRVVRNQQSLAVSNMGAESKG [R21E] the protein stability index was 2.3.
For IDFLRVVRNQQSLAVSNMGAWSKG [R21W], the protein stability index was 2.18.
IDFLRVVRNQQSLAVSNMGAGSKG [R21G] showed a protein stability index of 3.16.
For IDFLRVVRNQQSLAVSNMGAPSKG [R21P], the protein stability index was 2.15.
With IDFLRVVRNQQSLAVSNMGAQSKG [R21Q] the protein stability index was 2.18.
IDFLRVVRNQQSLAVSNMGAMSKG [R21M] showed a protein stability index of 1.77.
In the case of IDFLRVVRNQQSLAVSNMGAYSKG [R21Y], the protein stability index is reported as 2.08.
In the case of IDFLRVVRNQQSLAVSNMGASSKG [R21S], the protein stability index is reported as 2.37.
IDFLRVVRNQQSLAVSNMGAHSKG [R21H] gave a protein stability index of 2.67.
For IDFLRVVRNQQSLAVSNMGAFSKG [R21F], the protein stability index was 2.45.
With IDFLRVVRNQQSLAVSNMGALSKG [R21L] the protein stability index was 1.7.
In the case of IDFLRVVRNQQSLAVSNMGARAKG [S22A], the protein stability index is reported as 2.2.
IDFLRVVRNQQSLAVSNMGAREKG [S22E] showed a protein stability index of 3.13.
IDFLRVVRNQQSLAVSNMGARKKG [S22K] showed a protein stability index of 2.46.
IDFLRVVRNQQSLAVSNMGARIKG [S22I] gave a protein stability index of 2.05.
IDFLRVVRNQQSLAVSNMGARNKG [S22N] gave a protein stability index of 2.57.
For IDFLRVVRNQQSLAVSNMGARHKG [S22H], the protein stability index was 2.55.
Work on IDFLRVVRNQQSLAVSNMGARCKG [S22C] yielded a protein stability index of 2.51.
IDFLRVVRNQQSLAVSNMGARLKG [S22L] gave a protein stability index of 2.07.
IDFLRVVRNQQSLAVSNMGARGKG [S22G] showed a protein stability index of 2.27.
For IDFLRVVRNQQSLAVSNMGARDKG [S22D], the protein stability index was 2.69.
Variant IDFLRVVRNQQSLAVSNMGARMKG [S22M] has a protein stability index of 1.81.
Work on IDFLRVVRNQQSLAVSNMGARFKG [S22F] yielded a protein stability index of 2.24.
In the case of IDFLRVVRNQQSLAVSNMGCRSKG [A20C], the protein stability index is reported as 2.6.
Variant IDFLRVVRNQQSLAVSNMGNRSKG [A20N] has a protein stability index of 2.78.
In the case of IDFLRVVRNQQSLAVSNMGSRSKG [A20S], the protein stability index is reported as 2.75.
IDFLRVVRNQQSLAVSNMGGRSKG [A20G] showed a protein stability index of 2.43.
Variant IDFLRVVRNQQSLAVSNMGIRSKG [A20I] has a protein stability index of 1.99.
IDFLRVVRNQQSLAVSNMGWRSKG [A20W] gave a protein stability index of 2.32.
For IDFLRVVRNQQSLAVSNMGDRSKG [A20D], the protein stability index was 2.57.
Work on IDFLRVVRNQQSLAVSNMGERSKG [A20E] yielded a protein stability index of 1.92.
Variant IDFLRVVRNQQSLAVSNMGKRSKG [A20K] has a protein stability index of 2.69.
Variant IDFLRVVRNQQSLAVSNMGHRSKG [A20H] has a protein stability index of 2.38.
In the case of IDFLRVVRNQQSLAVSNMGRRSKG [A20R], the protein stability index is reported as 2.47.
IDFLRVVRNQQSLAVSNMGVRSKG [A20V] gave a protein stability index of 2.42.
IDFLRVVRNQQSLAVSNMGPRSKG [A20P] gave a protein stability index of 2.57.
For IDFLRVVRNQQSLAVSNMGTRSKG [A20T], the protein stability index was 2.06.
For IDFLRVVRNQQSLAVSNMGMRSKG [A20M], the protein stability index was 2.32.
With IDFLRVVRNQQSLAVSNMGFRSKG [A20F] the protein stability index was 2.1.
With IDFLRVVRNQQSLAVSNMGQRSKG [A20Q] the protein stability index was 2.25.
For IDFLRVVRNQQSLAVSNMGYRSKG [A20Y], the protein stability index was 2.44.
With IDFLRVVRNQQSLAVSNMGLRSKG [A20L] the protein stability index was 2.21.
Variant IDFLRVVRNQQSLAVSNMRARSKG [G19R] has a protein stability index of 1.97.
For IDFLRVVRNQQSLAVSNMYARSKG [G19Y], the protein stability index was 2.16.
IDFLRVVRNQQSLAVSNMNARSKG [G19N] showed a protein stability index of 2.72.
Variant IDFLRVVRNQQSLAVSNMLARSKG [G19L] has a protein stability index of 2.12.
IDFLRVVRNQQSLAVSNMMARSKG [G19M] gave a protein stability index of 2.3.
In the case of IDFLRVVRNQQSLAVSNMWARSKG [G19W], the protein stability index is reported as 2.66.
In the case of IDFLRVVRNQQSLAVSNMIARSKG [G19I], the protein stability index is reported as 2.19.
With IDFLRVVRNQQSLAVSNMAARSKG [G19A] the protein stability index was 2.47.
IDFLRVVRNQQSLAVSNMVARSKG [G19V] showed a protein stability index of 2.13.
With IDFLRVVRNQQSLAVSNMHARSKG [G19H] the protein stability index was 2.57.
Work on IDFLRVVRNQQSLAVSNMPARSKG [G19P] yielded a protein stability index of 2.83.
With IDFLRVVRNQQSLAVSNMDARSKG [G19D] the protein stability index was 2.35.
IDFLRVVRNQQSLAVSNMFARSKG [G19F] showed a protein stability index of 2.94.
IDFLRVVRNQQSLAVSNMCARSKG [G19C] gave a protein stability index of 2.24.
Variant IDFLRVVRNQQSLAVSNMKARSKG [G19K] has a protein stability index of 2.58.
In the case of IDFLRVVRNQQSLAVSNMQARSKG [G19Q], the protein stability index is reported as 2.96.
Variant IDFLRVVRNQQSLAVSNMSARSKG [G19S] has a protein stability index of 2.08.
In the case of IDFLRVVRNQQSLAVSNMEARSKG [G19E], the protein stability index is reported as 2.91.
With IDFLRVVRNQQSLAVSNMTARSKG [G19T] the protein stability index was 2.27.
IDFLRVVRNQQSLAVSNPGARSKG [M18P] gave a protein stability index of 2.57.
Work on IDFLRVVRNQQSLAVSNKGARSKG [M18K] yielded a protein stability index of 2.87.
IDFLRVVRNQQSLAVSNTGARSKG [M18T] gave a protein stability index of 3.23.
For IDFLRVVRNQQSLAVSNFGARSKG [M18F], the protein stability index was 2.
In the case of IDFLRVVRNQQSLAVSNVGARSKG [M18V], the protein stability index is reported as 2.32.
In the case of IDFLRVVRNQQSLAVSNCGARSKG [M18C], the protein stability index is reported as 2.51.
Work on IDFLRVVRNQQSLAVSNLGARSKG [M18L] yielded a protein stability index of 2.67.
IDFLRVVRNQQSLAVSNHGARSKG [M18H] gave a protein stability index of 2.91.
In the case of IDFLRVVRNQQSLAVSNWGARSKG [M18W], the protein stability index is reported as 2.03.
IDFLRVVRNQQSLAVSNEGARSKG [M18E] gave a protein stability index of 3.28.
IDFLRVVRNQQSLAVSNAGARSKG [M18A] gave a protein stability index of 3.02.
IDFLRVVRNQQSLAVSNQGARSKG [M18Q] showed a protein stability index of 2.73.
IDFLRVVRNQQSLAVSNNGARSKG [M18N] gave a protein stability index of 3.06.
With IDFLRVVRNQQSLAVSNSGARSKG [M18S] the protein stability index was 3.13.
IDFLRVVRNQQSLAVSNYGARSKG [M18Y] showed a protein stability index of 2.04.
Work on IDFLRVVRNQQSLAVSNRGARSKG [M18R] yielded a protein stability index of 3.35.
In the case of IDFLRVVRNQQSLAVSNIGARSKG [M18I], the protein stability index is reported as 2.13.
In the case of IDFLRVVRNQQSLAVSNDGARSKG [M18D], the protein stability index is reported as 3.05.
For IDFLRVVRNQQSLAVSNGGARSKG [M18G], the protein stability index was 2.85.
